Read-outs that look alike come from different tables or passages of the source.
T1: recombinant human TREM2 protein (amino acids 19 to 174) (human, UniProt Q9NZC2 19-174)
T1 construct: range 19-174
T1 sequence (looked up): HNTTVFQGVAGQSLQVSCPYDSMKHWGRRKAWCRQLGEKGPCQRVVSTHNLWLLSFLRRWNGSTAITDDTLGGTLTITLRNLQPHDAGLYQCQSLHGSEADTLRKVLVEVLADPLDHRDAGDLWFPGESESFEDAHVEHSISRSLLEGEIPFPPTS

T2: recombinant human TREM2 protein (amino acids 19 to 174) (human, UniProt Q9NZC2 19-174)
T2 chain: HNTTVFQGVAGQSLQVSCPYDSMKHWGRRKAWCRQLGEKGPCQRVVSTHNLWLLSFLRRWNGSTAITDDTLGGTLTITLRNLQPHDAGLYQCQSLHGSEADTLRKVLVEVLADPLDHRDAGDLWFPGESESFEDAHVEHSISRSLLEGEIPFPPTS

B1: Fc fusion antibody of single-domain antibody 12G10 (Fc fusion)
chain: ESGGGLVQPGGSLRLSCAASGFAFSNYVMHWYRQAPEKERELVAIIGSQGGAYTNYAASVKGRFTISRDNAKNMVYLQMNNLKPEDTAVYYCNVVYIGRPNWGQGTQVTVSS
notes: also called VHH-hFc; not shown: human IgG1 (vector RJK-V4-hFC1) or IgG4 (vector RJK-V4-3) hinge, CH2, CH3 with 6xHis tag; which of the two is told only
B2: single-domain antibody 12G10 (VHH)
VHH: ESGGGLVQPGGSLRLSCAASGFAFSNYVMHWYRQAPEKERELVAIIGSQGGAYTNYAASVKGRFTISRDNAKNMVYLQMNNLKPEDTAVYYCNVVYIGRPNWGQGTQVTVSS
notes: Crude extract from E. coli (pMECS vector), detected through an HA tag
B3: Fc fusion antibody of single-domain antibody 2B5 (Fc fusion)
chain: ESGGGLVQPGGSLRLSCAASGFAFSNYVMHWYRQAPEKERELVALIGSQGGAYTNYAGSVKGRFTISRDNTKNMVYLQMNNLKPEDTAVYYCNVVYNGRPNWGQGTQVTVSS
notes: as for B1
B4: Fc fusion antibody of single-domain antibody 10F10 (Fc fusion)
chain: ESGGGLVQPGGSLRLSCAASGFAFGNYVMHWYRQAPEKERELVAIIGSQGGTYTNYADSVKGRFTISRDNAKNMVYLQMNNLKPEDTAVYYCNVVYIGRPNWGQGTQVTVSS
notes: as for B1
B5: single-domain antibody 2B5 (VHH)
VHH: ESGGGLVQPGGSLRLSCAASGFAFSNYVMHWYRQAPEKERELVALIGSQGGAYTNYAGSVKGRFTISRDNTKNMVYLQMNNLKPEDTAVYYCNVVYNGRPNWGQGTQVTVSS
notes: as for B2
B6: single-domain antibody 10F10 (VHH)
VHH: ESGGGLVQPGGSLRLSCAASGFAFGNYVMHWYRQAPEKERELVAIIGSQGGTYTNYADSVKGRFTISRDNAKNMVYLQMNNLKPEDTAVYYCNVVYIGRPNWGQGTQVTVSS
notes: as for B2
B7: Fc fusion antibody of single-domain antibody 10E12 (Fc fusion)
chain: ESGGGLVQPGGSLRLSCAASGFTFSGYYMSWVRQVPGKARELVAGITRGGNTYYADSVKGRFTISRDNAKNTVYLQMNNLKPEDTTVYYCNARRATTYYWGQGTQVTVSS
notes: as for B1
B8: 12G12W-hFC1 (Fc fusion antibody of single-domain antibody 12G12W) (Fc fusion)
chain (part 1 of 2): ESGGGLVQAGESLRLSCAASGRTFTNYAMGWFRQAPGKEREFVAGVSWSGSSTDYADSVKGRFTISTDNAKNTVYLQMTSLKPEDTAVYICGVKYFGHSRGGYDYWGQGTQVTVSS
B9: 11H2-hFC4 (Fc fusion antibody of single-domain antibody 11H2) (Fc fusion)
chain (part 1 of 2): ESGGGLVQPGGSLRLSCAASGLTFSEYYMSWVRQVPGKARELVAGITRGGNTYYADSVKGRFTISRDNAKNTVYLQMNNLKPEDTTVYYCNARRATTYYWGQGTQVTVSS
B10: Fc fusion antibody of single-domain antibody 1H1 (Fc fusion)
chain: ESGGGLVQPGGSLRLSCAASGRTFSSYVMGWFRQAPGKEREFVAAISWSGGITYYGDSVKGRFTISRDNAKNTVFLQMNSLKPEDTAVYYCASGSGSYYRGWEYDYWGQGTQVTVSS
notes: as for B1
B11: single-domain antibody 12G12W (VHH)
VHH: ESGGGLVQAGESLRLSCAASGRTFTNYAMGWFRQAPGKEREFVAGVSWSGSSTDYADSVKGRFTISTDNAKNTVYLQMTSLKPEDTAVYICGVKYFGHSRGGYDYWGQGTQVTVSS
notes: as for B2
B12: Fc fusion antibody of single-domain antibody 10B3 (Fc fusion)
chain: ESGGGLVQAGESLRLSCAASGRTFTNYAMGWFRQAPGKEREFVAGVSWSGSSTDYADSVKGRFTISTDNAKNTVYLQINNLKPEDTAVYICGVKYFGHSRGGYDYWGQGTQVTVSS
notes: as for B1
B13: Fc fusion antibody of single-domain antibody 11D3 (Fc fusion)
chain: ESGGGLVQAGESLRLSCAASGRTFTDYAMGWFRQAPGKEREFVAGVSWSGSSTDYADSVKGRFTISTDNAKNTVYLQMTSLKPEDTAVYICGVKYFGHSRGGYDYWGQGTQVTVSS
notes: as for B1
B14: single-domain antibody 10B3 (VHH)
VHH: ESGGGLVQAGESLRLSCAASGRTFTNYAMGWFRQAPGKEREFVAGVSWSGSSTDYADSVKGRFTISTDNAKNTVYLQINNLKPEDTAVYICGVKYFGHSRGGYDYWGQGTQVTVSS
notes: as for B2
B15: single-domain antibody 11D3 (VHH)
VHH: ESGGGLVQAGESLRLSCAASGRTFTDYAMGWFRQAPGKEREFVAGVSWSGSSTDYADSVKGRFTISTDNAKNTVYLQMTSLKPEDTAVYICGVKYFGHSRGGYDYWGQGTQVTVSS
notes: as for B2
B16: single-domain antibody 10E12 (VHH)
VHH: ESGGGLVQPGGSLRLSCAASGFTFSGYYMSWVRQVPGKARELVAGITRGGNTYYADSVKGRFTISRDNAKNTVYLQMNNLKPEDTTVYYCNARRATTYYWGQGTQVTVSS
notes: as for B2
B17: single-domain antibody 11H2 (VHH)
VHH: ESGGGLVQPGGSLRLSCAASGLTFSEYYMSWVRQVPGKARELVAGITRGGNTYYADSVKGRFTISRDNAKNTVYLQMNNLKPEDTTVYYCNARRATTYYWGQGTQVTVSS
notes: as for B2
B18: single-domain antibody 1H1 (VHH)
VHH: ESGGGLVQPGGSLRLSCAASGRTFSSYVMGWFRQAPGKEREFVAAISWSGGITYYGDSVKGRFTISRDNAKNTVFLQMNSLKPEDTAVYYCASGSGSYYRGWEYDYWGQGTQVTVSS
notes: as for B2

Experiments:
[1] = molecular target: T1, recombinant human TREM2 protein (amino …); test: ELISA, VHH-hFc titrated on coated TREM2 (1 ug/mL), HRP-goat anti-hIgG
[2] = molecular target: T2, recombinant human TREM2 protein (amino …); test: ELISA
[3] = molecular target: T1, recombinant human TREM2 protein (amino …); test: ELISA, crude VHH extract on coated TREM2, anti-HA-HRP; positive if OD450 more than five times the control
Experimental: Crude antibodies were obtained by osmotic bursting. The TREM2 recombinant proteins were diluted in 100 mM NaHCO₃ of pH 8.3, respectively. An ELISA plate was then coated with 100 μg of the proteins and left at 4° C. overnight. 100 μL of the obtained crude antibody extract was transferred to the ELISA plate into which the antigen was added. The plate was incubated at room temperature for 1 h. The unbound antibody was washed away with phosphate buffered saline with Tween (PBST), and 100 μL of Mouse Anti-HA tag Antibody (HRP) (mouse anti-HA horseradish peroxidase-labeled antibody, Thermo Fisher) at 1:2000 dilution was added and incubated at room temperature for 1 h. The unbound antibody was washed away with PBST, and a horseradish peroxidase color development solution was added. After react at 37° C. for 15 min, a stopping solution was added. The absorbance value was read at the wavelength of 450 nm on a microplate reader.
When an optical density (OD) value of a sample well is more than five times greater than that of the control well, the sample well is identified as a positive clone well. The bacteria in the positive clone well were transferred to an LB medium containing 100 μg/mL ampicillin under shaking for plasmid extraction and sequencing.

[4] = molecular target: T2, recombinant human TREM2 protein (amino …); test: ELISA
[5] = molecular target: T2, recombinant human TREM2 protein (amino …); test: ELISA
[6] = molecular target: T2, recombinant human TREM2 protein (amino …); test: ELISA

Row | Binder | binding result [1] | binding result [3] | further results
1 | B1 | binds |  | EC50 [2]: 0.3 nM
2 | B2 |  | binds | 
3 | B3 | binds |  | EC50 [4]: 0.201 nM
4 | B4 | binds |  | EC50 [5]: 0.265 nM
5 | B5 |  | binds | 
6 | B6 |  | binds | 
7 | B7 | binds |  | EC50 [5]: 0.293 nM
8 | B8 |  |  | EC50 [6]: 0.254 nM
9 | B9 |  |  | EC50 [2]: 0.33 nM
10 | B10 | binds |  | EC50 [4]: 0.38 nM
11 | B11 |  | binds | 
12 | B12 | binds |  | EC50 [5]: 0.242 nM
13 | B13 | binds |  | EC50 [2]: 0.337 nM
14 | B14 |  | binds | 
15 | B15 |  | binds | 
16 | B16 |  | binds | 
17 | B17 |  | binds | 
18 | B18 |  | binds | 

From US20250320293A1 (REGENECORE BIOTECH, published 2025)
